The DeepSol protein solubility set

test: soluble on expression in E. coli; label from the status in PepcDB or PDB records

Soluble on expression in E. coli, not soluble:
MGSDKIHHHHHHMITVSIVTYKTNLGELSKCLQSLISSLVSQIYIVDNSNERYIADFCQQYPNVIYIGSENVGYGAGHNQALRQVLNSGGKYHLILNSDVYFEPSVLEFLAAYMDAHADVAQVQPNVVYPDGEQQYTCRLLPTPANLIFRRFLPKRMVEKMNIRYQLKFDDHKKEMNVPYHQGSFMFFRLECFKKVGLFDERFFMYPEDIDITRRMHKWYRTMFVPSVTIVHAHRAASYKSKKMLKIHMVNMIKYFNKWGWIVDKERSAWNRKLLEELGYKK
MGSDKIHHHHHHMIVALIIHRPLTKRQKMVAYDVEQLEGKVRGALLQGTNSGKTGVIVLGGSSGRVDTTRAGLFANTGARALALQWFGGANQPPGICEIPLETFVDATDLLISRGCDRTVFVGTSKGAEAALLASTIDHRINVVIAISPSSVVLGNIGAGVDGISWPERSSWSFKRSPLDFVPADINWQKDYRDGLVSYRSFFEKCLSNDVQLNERARIPVESSPADLILVAGGDDALWPSGYFARQILQSRQAHGRQATLIFDKDAGHRILLPGETTQRSKLHAHGGSDEADAKLGQNAWRAIRELL
MGSDKIHHHHHHMIVAVGKDEEKIKESLEEMKGLCKTLGVEVVEWLWQKRAKPDPATYLGKGKLQKLKEVVEFCEADLVVVDDEITPVQYKNMQSELNVDVLDRTQVILEIFARHATSEEGKLQVEMASLLYELPRLVGKGEELSRLGGGIGTRGPGEPLLEVLRRHIKNRIAQLRKRLKEIEQERNTQRKQRLEKKIPHVSIVGYTNAGKSTLLKVLTDSDVYVADKLFATLEPVTRRLKLKSGRVILVSDTVGFIRKLPHTIVSAFKATLEEIKYSDVLIHLVDASDPYLEEKMKASEKVLEEIGADKIPRILVFNKIDLCPRERIETLKWKYPEALFISAEKRIGLDQLLDRLEEVISQRDVQETLKVPLEKIGQIYALKDRLEILNEDYREGYALITLKTDRETLEMLKRKVAS
MGSDKIHHHHHHMIVLFVDFDYFYAQVEEVLNPSLKGKPVVVCVFSGRFEDSGAVATANYEARKFGVKAGIPIVEAKKILPNAVYLPMRKEVYQQVSSRIMNLLREYSEKIEIASIDEAYLDISDKVRDYREAYNLGLEIKNKILEKEKITVTVGISKNKVFAKIAADMAKPNGIKVIDDEEVKRLIRELDIADVPGIGNITAEKLKKLGINKLVDTLSIEFDKLKGMIGEAKAKYLISLARDEYNEPIRTRVRKSIGRIVTMKRNSRNLEEIKPYLFRAIEESYYKLDKRIPKAIHVVAVTEDLDIVSRGRTFPHGISKETAYSESVKLLQKILEEDERKIRRIGVRFSKFIEAIGLDKFFDT
MGSDKIHHHHHHMIVLSKRELFAMLPSVDEVLSDNRIVEIINEYPRSLVLESVREVIDLKRQFILRLKEDASNSVTIEFGEIIESAIERVKLNYSLSLKKVINATGTVIHTNLGRSLLSEDIKDELWCAASRYSNLEYDLDNGERGSRYSHLTSTIKRLTGAEDVLVVNNNAAAVLLVLSTMAKGGEAIVSRGELVEVGGSFRIPSIMALSGAELVEVGSTNKTHLKDYKEAITEDTNVLMKVHTSNYRIMGFTESVSIEELVNLGKKYKLPVIEDLGSGVFIDLSKYGLSYEPTVLDSIRQGADVVTFSGDKMLGGPQAGIIVGKKEYIEKMKKNQLTRALRVDKLTICALEATLRMYLDETKAIENIPTLKMLTYKIEELEVKANKLFEKITALNLNANINIEDGFSQVGGGSMPLETISTKVISITPEHMNVSSLEKKLRLSEAHIIARVYDNKYVLDVRTIFDDEFDVIVEELRKAFN
MGSDKIHHHHHHMKALMFGWEFPPHILGGLGTASFGLTRGMAMQPDMDITFCIPKPWGDEDQSFLKIVGVNQVPIVWKDVDREYVQQRVSKAGMNADQYYKYRDHIYADFSYRHVTDLGCLEFSGRYPDNLLEEINNYSIVAGVIARTEEYDIIHAHDWLTYPAGIHAKNVSGKPLVIHVHATDYDRSRGNVNPDVYAIEKNGMDNADHIITVSNLTRQTVIEKYHQDPAKVTTVHNAVEPLSPEILAIPDKKGVKDKVITFLGRITMQKGPEYFVEAAAKVLAKAPYARFVMAGSGDMMDQMIRLAAARNISDRFHFTGFMKGKQVYEVLKASDVYVMPSVSEPFGISPLEAMQCGVPSIISKQSGCAEILDYAIKVDYWDIEALADAMYSIITYPAMHEFLKVEGKKEVDNIKWEYAGQKVRRIYDNVIGNK
MGSDKIHHHHHHMKAVVQQWYTHPAVRAALTDLADYRPTLATAIEIQQVPAPTFAERPRSLLVSQRMQALGLHDVEVDDLGNVYGRRPGSTARPGLLISAHLDTVFPADTDLSIRYEGERVYGPGIGDNSAGVAGLLRLAEMYQRFDLPNTSDIWFVANVGEEGLGDLRGMRRVVERLRTRLSTVVVIEGCDFGSLHHQAIGVRRFRIEATGPGGHSWGNFGTPSAIHVLVRLAARLTELQVPSSPRTTFNIGTISGGTSVNTIAQHANMLLDLRSVSSAALTDLVNEVYRLVEEVALEYPDVHIQLTKVGDRPSGAIPREHPLVQAAVAAYQMVGAQISFQQSSTDANIPLSLGMPAVCVGLTDGGNAHRTDEYILPFNLSRGMQALLLLSLAANTLETI
MGSDKIHHHHHHMKCFFESEEFEKAVEKIDRLYEKVDSIEEAEIAFLREKKPFQGVAVVKEETYTIYKTGEKLVELEDPEKAASIAYILAGEKLLSGGWVRRMVSGLLQAMIVLMEIEDENGWSHSQRVARLAERVGKKLGLSEEKLSLLREYAMLHDVGKIGIEQLMLYTPTRIRIFEQYPQDHTIMGSVFLASLEVLWDVVPIVRHHHENWDGTGYPDGLKGEEIPLEARIISVCDYYDVLTNFVSSEWEGRTKTHEEALEIIKKEAGKKFDPKVVEAFLEIFSDEAVE
MGSDKIHHHHHHMKDDQWLEARAHGDPMFPCNVYRVKEVNGQVIIHCHWHHEMEWIYMEAGEAEFQIGTKMTTVRAGEGLFIPSGHLHGAYPVSDKPFSLYATVVHPDFISSFGYDLIQSRYIDPFKDSERTGPIKLCPTHYWMSDMLTMLQATISQFQQKEEGYELVIKANLLQMMAELVKHFPRTEEQKTGTPQQIRQIKKVLQFIDEHYDEKLTIKQLANLVQMSEGHFSRFFKSIVRMTAVEYIHTQRLNKAARLLRETDRTIMDISMSVGFDHPSYFIKLFKRHKRCTPSEFRRIGLPTFSENMKT
MGSDKIHHHHHHMKDEILIRYINKHCTATEEKEILEWLKEKDNRQRLFELEQIWGLKAEMRFSDKGRMDEAYRQLSRQLGLSGQIEKREKPIQRFTVREWWKYAAVLVAVCLFATNLFYITKEEPEAYNTVVVPKGQRVSLLLSDGTTVWLNAESRFSYPAKFSEKYRTVTLEGEGYFEVAHNPKCPFTVKLPMLNIRVLGTKFNAKAYLDEPSWITLKEGSVEVSTLDDRSKERMSPNDQVYYTVSDGLVLIRNSAQANVDSWTTGDLRFDNKTLKEMAKVIERRYDVKIRIMDSSLVEEYFTCHFRKDLTIAQAMELLKETRRVDYRIEKKTVYLYKK
MGSDKIHHHHHHMKDIANTPLVSIICSTYNHGLYISQCLDGFLMQKTNFPFEILIHDDASTDNTPDIIREYEHNHPQVIRPIYQKENKYSKKEDIFAKYQCSRVRGKYIAICEGDDYWIDPLKLQKQIDFLENNPDYGMIYTTSKVYNQKKGKIEEDIIGRKFNGYIELLSGNCIPTLTSCIRSALVMEYLKEVEPKSKNWLMGDYPMWLWISYYHKIKFLPESTTVYRVLEESASHSNDIQKYERFILSTIDITAFYIHKFNTPLTEPYLRSLSCFYYDLYDKYMCLGMYKKARHYSKLINPSYVSARMRRRVRRFHLRFIQIRLAKWFDIKGKERK
MGSDKIHHHHHHMKDSALRVGIYQGPEIPQSFKVYAENVWRHLPKQDIATIPFKDRKDLPKSADVLWDIRSGGGNPPPDFLLEHPLPPLVVTVHGFAPLSLNGWEYFRTLKGLIMSGQYAKHKRERWREVRTAVGSIIAVSAFVKDEAIRFTGVPADRIHVCHHGVDGNAFTPGPDTESEPYFFHVSNDEPRKNVGAIVRAFRQLRRHCRVQLVLKLPEESARNYEKIEGIRVLSGFLTTEELVHLYRHALAFIFPSLYEGFGLPILEAMACGCPVITSNVSACREIAGEAARTINPRNESELLEAMEILYRNPEERRARTAMGLRRALGFSWEESAKCHARVLYMTADRNAPVASPD
MGSDKIHHHHHHMKEGKANILIIDDISSNIFALENLLMTENRTFFKATSGDEGLKLALSKPVDLIILDVQMPEMDGFEVANMLKSNKRTKDIPILFASAELKEQKNMLKGLEEGAIDYLFKPLDPEITKAKVNMLIRLELQRKEMVEINSALEKSAILINNCLDIICTIDAETFKFEAFNVAMTNVLGYSSEEITSQSLLFFLQESDREFIKNLKKSDSNTGSFEIQIICKDSSIKWLQWNIVVKGGKWFSNARDITERKKKDDEIIRLNQDLHENIQQLENANKELESFSYSVSHDLRAPLRSINNYAQMLEDAFAAQMDEKSTRLLGNIKRNAFRMDTLIDDLLAFSRLGRKPVQKQSINMNDLVQHVYADMQGTFKGEFVLPALPDIDADYNLLKQVVVNLLSNAIKYSGKIEEPRIEVGYTKNPNAVVYYIKDNGAGFDMEYSDKLFGVFQRLHSTKEFEGTGVGLAIVKRIVEKHGGTIWAEAKVGEGATFYFSLPAPV
MGSDKIHHHHHHMKEILKQQYAIIDIGSNTMRLVIYEKQNGGFYKEIENTKVVARLRNYLVDGVLIEEGIEVLLQTLFQFQESTRFHQLRHVLCVATATIRQAENQEEIKKLVEGQTDFTLRVLSEYEEARYGYLAVMNSTSFSEGITVDIGGGSTEVTYFRNREILEYHSFPFGALSLKQQFIKEDIPTEEELDKLQTYLEYQFRTLPWLIDKKLPLIAIGGSARNLVKIHQNLICYPIAGVHLYKMKEEDIKNVKEELEGLSFIELQKLEGLAKDRADTIVPAVEVFHTLVNVIEAPAFVLSRKGLREGVFYEELTKDLGISYYPNVVEESLYLLSHEYEMDMEFVMQLIKHGRLICQQLEETGLISMSVKDWEVFHQAAKVFNIGKYIDEEASRLHTFYLLANKTIDGMMHKERVRLALIASYKSKMLFKQHLSPFEGWFDKNEQKKIRLLGAVLQFSAALNIRQRSLVESISITESKEGLTFKIVCEQSALAEKVQAEKQKKQLERVLKTNINLFFESKH
MGSDKIHHHHHHMKEIVTVGVDIAKNVFQVHGVDAQGVVVVRRKLRRSKVSGFFESLPPCLIGIEACATAHHWARHLMALGHEVKLMPAAYVKPYVKRQKNDAADAEGICEAVQRPTMRFVPVKSKEQQGVLMLHRARELLVRQRTMLINALRAHLAELGIATRLGPMGVKDAVAVIEGIDQHLIPEIVQHALSPLCDQLRHVHTKIEEMDRQILEWHRSSALSQRLATIPGIGPVTASAIAATITDVSSFRSGRQLAAWIGLVPRQSSSGGKERLGRITRQGDPYIRRLLVIGAAL
MGSDKIHHHHHHMKESLISFIKEKIEEYNYRGAVVGVSGGVDSAVVLSLCVQALGKDRVFALILPERDSSKDSLKDAVDFCERLGVEYRKRSITPILRKIGVYRLFPPRLFLPDSIVKRYVLNRWNTLSKDPFLDDLRNTGPEEFLKGLAYYRIKHRIRMCLLYFEAEKRGYAVVGTTNRTEYLTGLYVKWGDEAVDIEPIMHLYKTQVFELAKEMNVPEKILKKPPSPDLIPGITDEMAFNMSYLELDRILMKLEKNEDLSDEDPKKVERVKKILELSEKYRRDIPITFDRI
MGSDKIHHHHHHMKESLRREYAPVKDLKPDDHIKMVQDIFSTITGKYDFLNHLLSFRRDVAWRRFAARKMHFSVTRRYLDVATGTADLALEVARRYPEVQVIGVDFVLEMLEKAVEKSARRDKIRDRVHFVQADALALPFADASFDVVGIAFGIRNIPGRLGALREFSRVLVDGGQVVVLEMQSPEQKMLRPLCTFYLRHVLPRLARRFTRNPAAYLYLADSILHFPSSDRFSGMMRDAGFADVRNYPLTLGITRLYVGRKGQ
